Three substances from US20250122266A1, “SMART SINGLE-DOMAIN INTRABODIES WITH PRECISION SWITCHES FOR BIOMEDICAL APPLICATIONS” (THE TEXAS A&M UNIVERSITY SYSTEM, priority 2020, published 2025) can be followed below.

Test [1] addresses YFP-ORAI1 (UniProt Q96D31). Nature of the test: cell-based or functional assay.
For test [2], the target named is Recombinant SARS-COV-2 Spike RBD (SARS-COV-2) (UniProt P0DTC2). Briefly: ELISA on immobilised RBD; read as the value without caffeine.
Test [3] shares this target.
Test [4] deals with NE-tethered mCh-lamin A (UniProt P02545). Briefly: NE/NP ratio of GFP signal in HeLa cells, before and after light.

Like-named read-outs stand apart in the source and are kept apart here.

Sequence of mCherry-COSMO-STIM1ct (Q13586 other isoform, or with tags, fused parts or gaps): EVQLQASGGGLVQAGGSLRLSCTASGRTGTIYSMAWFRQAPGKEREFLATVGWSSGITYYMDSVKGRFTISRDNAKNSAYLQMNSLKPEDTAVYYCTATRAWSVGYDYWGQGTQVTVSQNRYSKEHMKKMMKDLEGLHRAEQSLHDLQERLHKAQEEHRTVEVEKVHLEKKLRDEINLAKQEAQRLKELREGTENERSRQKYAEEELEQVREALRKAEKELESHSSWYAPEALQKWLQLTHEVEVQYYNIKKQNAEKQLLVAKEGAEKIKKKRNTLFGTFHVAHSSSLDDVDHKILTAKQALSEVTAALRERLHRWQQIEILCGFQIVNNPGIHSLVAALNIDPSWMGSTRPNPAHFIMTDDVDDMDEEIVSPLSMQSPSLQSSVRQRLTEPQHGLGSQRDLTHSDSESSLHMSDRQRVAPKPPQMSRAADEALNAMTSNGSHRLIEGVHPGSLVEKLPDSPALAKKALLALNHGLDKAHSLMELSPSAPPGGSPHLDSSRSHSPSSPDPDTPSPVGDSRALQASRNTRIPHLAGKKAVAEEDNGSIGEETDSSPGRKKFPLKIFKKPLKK
Sequence of YFP-ORAI1 (Q96D31 whole entry): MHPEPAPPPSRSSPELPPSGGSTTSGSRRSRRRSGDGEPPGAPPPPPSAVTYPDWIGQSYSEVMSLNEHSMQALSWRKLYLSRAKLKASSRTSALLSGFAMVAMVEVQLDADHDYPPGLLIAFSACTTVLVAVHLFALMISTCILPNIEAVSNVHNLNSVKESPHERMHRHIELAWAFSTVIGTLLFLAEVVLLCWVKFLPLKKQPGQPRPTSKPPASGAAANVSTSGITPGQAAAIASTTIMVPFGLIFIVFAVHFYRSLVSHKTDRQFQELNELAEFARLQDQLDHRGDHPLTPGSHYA

On to “mCherry-COSMO-STIM1ct (from UniProt Q13586 233-685)”, for which, in test [1], the calcium influx (GCaMP6s) after 1 µM caffeine, activation half-life is 1.63 min.
As to MBP-COSMO-VHH72, the apparent binding affinity in test [2] is 29 nM; in test [3], 18 nM.
On to “GFP-sunbody variant S0 (LOV2 fused to the N-terminus of LaM8) (VHH)”, for which the increase in the NE/NP ratio after photostimulation in test [4] is 10%.
